{"source": "patent US20240166765A1", "about": "“INFLAMMATORY DISEASE TREATMENT USING ANTI-TISSUE FACTOR ANTIBODIES” (Iconic Therapeutics LLC, priority 2020, published 2024)", "key": {"[1]": {"target": "T1, TF:FVIIa (Homo sapiens, UniProt P13726)", "T1 construct": "host or cells: MDA-MB-231", "T1 sequence (P13726 33-295)": "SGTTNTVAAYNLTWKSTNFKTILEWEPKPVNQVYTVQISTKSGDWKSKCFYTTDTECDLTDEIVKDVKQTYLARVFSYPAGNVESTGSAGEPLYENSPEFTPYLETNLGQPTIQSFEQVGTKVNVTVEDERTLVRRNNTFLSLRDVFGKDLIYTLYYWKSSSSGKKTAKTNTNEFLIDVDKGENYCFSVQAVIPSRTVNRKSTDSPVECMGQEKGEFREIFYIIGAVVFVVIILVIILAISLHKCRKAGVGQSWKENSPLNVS", "assay": "FXa conversion assay on MDA-MB-231 cells", "format": "cell-based", "conditions": "concentrations of 25, 50, and 100 nM; Example 26", "procedure": "(§1) To evaluate the ability of TF:FVIIa to convert FX into FXa in the presence of human antibodies against TF, 5×10^4 MDA-MB-231 cells (ATCC, Manassas, VA, USA) were plated into tissue culture-treated black 96-well plates (Greiner Bio-One, Monroe, NC, USA). […] Upon reconstitution of the binary TF:FVIIa complex with a final concentration of 20 nM of FVIIa, cells were incubated for 5 min at 37° C.\nas §1, with “Briefly,” for “To evaluate the ability of TF:FVIIa to convert FX into FXa in the presence of human antibodies against TF,”, “USA) and cultured overnight.” for “USA).”"}, "[2]": {"test_system": "thrombin generation (relipidated TF in normal pooled plasma)", "assay": "Thrombin generation assay (TGA) without antibody pre-incubation", "format": "biochemical, human", "conditions": "Ab conc. 10 nM, Table 44", "procedure": "(§2) The TGA assay was performed using the calibrated-automated-thrombogram (CAT) instrument manufactured and distributed by STAGO. The test method design was equivalent to a standard CAT assay measurement, except that the plasma source was NPP in citrate/CTI. […] Relipidated TF was added to a 96-well assay plate, followed by addition of the antibody/NPP mixture. After a 10-min incubation or directly after combining the relipidated TF with antibody/NPP, thrombin generation was initiated by the addition of calcium and the thrombin substrate. The STAGO software was used to report the following parameters: Peak IIa (highest thrombin concentration generated [nM]); Lag Time (time to IIa generation [min]); ETP (endogenous thrombin potential, area under the curve [nM×min]); and ttPeak (time to Peak IIa [min]).\nas §2, with “was normal pooled plasma (NPP)” for “was NPP”, “in citrate supplemented with corn trypsin inhibitor (citrate/CTI).” for “in citrate/CTI.”\nTGA assay was performed using the calibrated-automated-thrombogram (CAT) instrument manufactured and distributed by STAGO (Diagnostica Stago SAS, Asnieres sur Seine, France). […] The anti-TF antibodies were titrated at 0, 10, 50 and 100 nM and mixed with NPP in citrate/CTI. Relipidated TF was added to a 96-well assay plate, followed by addition of the antibody/NPP mixture. After a 10-min incubation or directly after combining the relipidated TF with antibody/NPP, thrombin generation was initiated by the addition of calcium and the thrombin substrate. The STAGO software was used to report the following parameters: Peak IIa (highest thrombin concentration generated on the thrombin generation curve [nM]); Lag Time (time from assay start to the moment 10 nM of thrombin is formed [min]); ETP (endogenous thrombin potential, area under the curve [nM×min]); and ttPeak (time from assay start to Peak IIa [min]). […] As used herein, the term “thrombin generation assay” (TGA) refers to the TGA used in this example."}, "[3]": {"target": "T2, human TF (TF-positive MDA-MB-231 cells) (Homo sapiens, UniProt P13726)", "T2 construct": "Human TF-positive cancer cell lines A431 and MDA-MB-231; host or cells: MDA-MB-231", "T2 sequence (P13726 33-295)": "as above", "assay": "Antibody competition assay with 39A on MDA-MB-231 cells", "format": "binding", "conditions": "20 nM 39A-Alexa488", "procedure": "(§3) Alexa Fluor antibodies were generated using Alexa Fluor 488 5-sulfo-[…] esters (ThermoFisher Scientific) following manufacturer's protocol. Excess Alexa Fluor dye was removed from the antibody dye conjugate preparations by gel filtration (ThermoFisher Scientific).\n(§4) After another 1 hr incubation on ice, cells were washed, stained with a viability dye, and analyzed by flow cytometry. The Alexa488 fluorescence data from viable cells was summarized using median fluorescence intensity."}, "[4]": {"test_system": "TF-positive A431 cells", "assay": "Cytotoxicity assay of ADCs, A431 cells", "format": "cell-based, human", "conditions": "Primary ADC", "procedure": "To evaluate cytotoxicity of ADCs, TF-positive A431 and HPAF-II cells were plated in 384-well plates (Greiner Bio-One, Monroe, NC, USA) at 4×10^3 cells per well in 40 μL of media. Anti-TF antibodies conjugated to MC-vc-PAB-MMAE were serially diluted starting at 5 nM. Plates were incubated for 3 to 4 days, followed by lysis in CellTiter-Glo (CTG) assay reagent (Promega, Madison, WI, USA). CTG luminescence was measured on an Envision plate reader and the mean and standard deviation of 4 replicates were graphed in Prism.\nTo evaluate ADC cytotoxicity, A431 cells were plated in 384-well plates (Greiner Bio-One). Anti-TF antibodies conjugated to MC-vc-PAB-MMAE were serially diluted as shown. The TF-specific ADCs were added to A431 cells, with either a 72 h incubation or a 4 h incubation followed by removal of excess ADC and culture for another 68 h. A431 cells were lysed in CTG assay reagent after treatment. CTG luminescence was measured and the mean and standard deviation of 4 replicates graphed in Prism."}, "[5]": {"target": "T2, human TF (TF-positive MDA-MB-231 cells)", "assay": "Antibody competition assay with 25A3 on MDA-MB-231 cells", "format": "binding", "conditions": "20 nM 25A3-Alexa488", "procedure": "as §3, §4"}, "[6]": {"target": "T2, human TF (TF-positive MDA-MB-231 cells)", "assay": "FVIIa competition assay (FVII-Fc Alexa488) on MDA-MB-231 cells", "format": "binding", "conditions": "highest concentration of antibody; Example 26", "quoted_text": "To evaluate competition between FVIJa and the human antibodies against TF, TF-positive MIDA-MB-231 cells (ATCC, Manassas, VA, USA) were first incubated for 1 hr on ice with a titration of the human antibodies against TF. Subsequently, a final concentration of 20 nM of FVII-Fc conjugated to Alexa488 was added to the antibody cell mixture. After another 1 hr incubation on ice, cells were washed, stained with a viability dye, and analyzed by flow cytometry. The Alexa488 fluorescence data from viable cells was summarized using median fluorescence intensity.\nSubsequently, FVII-Fc conjugated to Alexa488 was added to the antibody-cell mixture at a final concentration of 20 nM. After another 1 hr incubation on ice, cells were washed, stained with a viability dye, and analyzed by flow cytometry. The Alexa488 fluorescence data from viable cells was summarized using median fluorescence intensity (MFI)."}}, "note": "pIC50: −log10 of the molar value.", "data": [{"substance": "TF-011", "values": [{"measurement": "inhibited FX conversion by", "setting": "[1]", "result": "57-59%"}, {"measurement": "ETP", "setting": "[2]", "result": 1714, "unit": "nM·min"}, {"measurement": "% 39A binding", "setting": "[3]", "result": "reduced"}, {"measurement": "pIC50", "setting": "[4]; 4 hr, followed by washout, FIG. 20B", "result": 9.77}, {"measurement": "pIC50", "setting": "[4]; 4 hr, followed by washout, FIG. 21A", "result": 10.05}, {"measurement": "pIC50", "setting": "[4]; Continuous treatment, FIG. 20A", "result": 10.30}, {"measurement": "% 25A3 binding", "setting": "[5]", "result": "did not reduce"}, {"measurement": "competition with FVII", "setting": "[6]", "result": "effectively competed with FVII"}]}]}
